Test results published in publication PMC9363494.

Experiments:
full-length α-synuclein = full-length α-synuclein (UniProt P37840); assay: NMR titration; 1H-15N HSQC of 0.3 mM 15N-enriched FL- or CT-α-syn titrated with PDI (mole ratios 10:1 to 1:1, 0-300 μM PDI); 20 mM HEPES, 100 mM NaCl, 5 mM TCEP, pH 7.0, 10% D2O, 15 °C; KD from fits of the average CSPs of residues in segment 1 and in segment 2
Y39E-α-syn = Y39E-α-syn (UniProt P37840)

Row | Substance | KD of segment 1 (full-length α-synuclein) [µM] | KD of segment 2 (full-length α-synuclein) [µM] | elongation rate constant (k) of aggregation of Y39E-α-syn with PDI, thioflavin T fluorescence (without PDI: ND, plateau was not reached) (Y39E-α-syn) | half-time (t1/2) of aggregation of Y39E-α-syn with PDI, thioflavin T fluorescence (without PDI: ND, plateau was not reached) (Y39E-α-syn) [h] | lag time (tlag) of aggregation of Y39E-α-syn with PDI, thioflavin T fluorescence (without PDI: ND, plateau was not reached) (Y39E-α-syn) [h]
1 | protein disulfide isomerase, P07237 18-508 (enzyme; other documents disagree on this pair) | 700 | 400 |  |  | 
2 | protein disulfide isomerase (from UniProt P07237 18-508) (enzyme) |  |  | 0.21 | 46 | 36
